B1: T2C1 (VHH)
VHH: QVQLVETGGGLVQAGGSLRLSCAASGRTFSGDAMGWFRQAPGKEREFVAAISWNGGSTDYADSVKGRFTISRDAKNTVYLQMNSLKPEDTAVYYCASSREDYGSSFLRGSYDYLGQGTQVTVSS
B2: T2A7 (VHH)
VHH: QVQLVETGGGLVQTGGSLRLSCAASGFTFDDFAIGWFRQAPGKEREWVSCISSRNGSPYYADSVKGRFTISSDNAKNTVYLQMNSLKPEDTAVYYCKADTDSIVPSCNALDTWGQGTLVTVSS
B3: T2D8 (VHH)
VHH: QLQLVESGGGLVQPGGSLRLSCAASGFTLDYYAIGWFRQAPGKEREWVSCLGRSSSSTSYVADSVQGRFTISRDNAKNTVYLQMNSLKPEDTAVYYCAADLSSQISSCNALDTWGQGTLVTVSS
B4: T2D2 (VHH)
VHH: QVQLAETGGGLVQPGGSLRLSCAASGFDFSRSTMSWVRQAPGKNIEWVSDINSGGGLTNYGDTVKDRFTISRDNAKNTLYLQMNSLDVEDTAVYYCVKGMWITSDQPRGQGTQVTVSS
B5: T2E11 (VHH)
VHH: QLQLVETGGGLVQPGGSLRLSCAASGFSLDYYAIGWFRQAPGKEREGVGCISSSGSTTKYADSVKGRFTISRDNAKNTVYLQMNSLKPEDTAVYYCAARNPADLNCGAYVLNGEYWGQGTQVTVPS
B6: T2E12 (VHH)
VHH: QVQLAESGGGLVQAGGSLRLSCAASGFTFDDYAVAWFRQAPGKAREMVLCISSSGGSSYYADFVKGRFTVPSNSAKNTVYLQMNSLKPEDTAKYICAVDATYPHSCNALDAWGQGTLVTVSS
B7: T2B12 (VHH)
VHH: QLQLVESGGGSVQAGGSLRLSCAASGFTFGDYAIAFFRQAPGKEREGVSCISTYDGSTYYGDSVKGRFTISSDNAKNTVYLQMNSLKPEDTAVYYCAADRADCGWYYPYDYWGQGTQVTVSS
B8: T2E8 (VHH)
VHH: QVQLAESGGGSVQAGGSLRLSCAASGLTFDKYAIGWFRQAPGKGREMVSCINTNYGSTYYADSVKGRFTISSDTAKNTVYLQMNSLSPEDTAVYYCAADTRSSWPSCNALDTWGQGTLVTVSS
B9: T2A3 (VHH)
VHH: QVQLAESGGGLVQAGGSLRLSCAASGLTFDKYAIGWFRQAPGKERELVSCISTNYGSPYYADSVKGRFTISSDNAKNTVYLQMNSLKPEDTAVYYCAADTRSSWPSCNALDARGQGTLVTVSS
B10: T2D9 (VHH)
VHH: QLQLVESGGGLVQPGGSLRLSCVLSGSDLAYYNVGWFRQAPGKEREGVACTSRVSDTKYYADSVKARFTVARDNAKNTVNLQMSSLRPEDTAVYSCALLRWCTTEDSDSEGMGHWGKGTLVTVSS
B11: T2G6 (VHH)
VHH: QVQLVESGGGLVQAGGSLRLSCAASGFTFDDYAIGWFRQAPGKEREMILCINSRSGSTSYYADSVKGRFTVSVNSAKNTAYLQMNSLKPEDTAVYYCAADVTHPHSCNALDAWGQGTLVTVSS
B12: T2G7 (VHH)
VHH: QVQLVESGGGSVQAGGSLRLSCAASGFTFDDYAIGWFRQAPGKEREMILCINSRAGMTSYSADSVKGRFTVSVNSAKNTAYLQMNSLKPEDTAKYYCAADVTHPHSCNALDAWGQGTLVTVSS
B13: T2H1 (VHH)
VHH: QVQLVESGGGLVQAGGSLRLSCAASGFTFDDYAIGWFRQAPGKEREQILCINSNRARTSYYAESIKGRFTVSVNSAKNTVYLQMNSLKPEDTAVYYCAADVTHPHSCNALDAWGQGTLVTVSS
B14: T2C7 (VHH)
VHH: QLQLAESGGGLVQAGGSLRLSCVVSGRTDSSYAVGWFRQAPGKEREFVAAIMWSGISTYYADSVKGRFTISLDNAKSTVYVQMNSLKPEDTAVYYCAAWKGATVTDDDPWGQGTQVTVSS
B15: T2D10 (VHH)
VHH: QVQLAETGGGLVQAGGSLRLSCAASGLTSSRYAMAWFRQVPGLEREFVASMTGSGGRTFYADSVKGRFTISRDNAKNTVYLQMNNLNPEDTAVYYCAVEYRDSGTRWSNEYDYWGQGTQVTVSS
B16: T2B2 (VHH)
VHH: QLQLAESGGGLVQAGGSLRLSCAASGRTFNTLHLAWFRQAPGNERDFVASISGSLGSLHYADSVKGRFTISRDNANNTVYLQMNSLKLEDTAVYYCAGAPIYDRFSSSSSSYDYWGQGTQVTVSS
B17: T2A2 (VHH)
VHH: QVQLAETGGGLVQPGGSLRLSCAVSGFMVNSYDIGWFRQAPGKEREGVSCISSSGGATHYVDSVKGRFTISRDNAKNMVYLQMNSLKPEDTATYYCAANRMTRCSDYHGYPFWGQGTQVTVSS
B18: T2H5 (VHH)
VHH: QVQLVETGGGLVQAGGSLRLSCTASGFTFDEYAIGWFRQAPGKEREMILCISSVGGSTYYADSVKGRFTISSDNAKNTMYLQMSSLKPEDTAKYYCAVDVTPPHSCNALDTWGQGTLVTVSS
B19: T2A1 (VHH)
VHH: QVQLVESGGGLVQAGGSLRLTCAGSGRTFSGDVMGWFRQAPGKEREFVAAISYNGGSTYYADSVKGRFTISRDNAKNTVYLQMDGLKPGDTAVYYCASSREDYGSSLAKGSYDYWGQGTQVTVSS
B20: T2B6 (VHH)
VHH: QLQLAESGGGLVQAGDSLRLSCADSGRTFSDYAMGWFRQAPGKEREFVAAISWNGRSTYYIEAVKDRFTISRDNAKKTLYLQMNSLKPEDTAVYYCAAAREDYGSSLVKGSADYWGQGTQVTVSS
B21: T2H3 (VHH)
VHH: QVQLAESGGGLVQAGGSLRLSCVASGRTFDINTMAWYRQAPGKQRDFVASSYHGGITNYADSVKGRFTMSRDNAKNTVYLQMNSLKPEDTGVYYCTWRGGGVYWGQGTQVTVSS
B22: T2B4 (VHH)
VHH: QVQLVETGGALVQTGGSLRLSCAVSGRSSSTQGLGWYRQAPGKEREFVATINWISGATYYSDSVKGRFSISRDNAENTVSLQMHDLKPDDTAVYYCGAGLSPIARMDYWGQGTQVTVSS
B23: T2C5 (VHH)
VHH: QVQLVETGGGLVQPGGSLRLSCATSGFTFSSTTMTWVRQAPGKGLEWLSGIYSDGRTEYADSVKGRFTISRDNAKNTLYLEMNSLKPEDTAVYFCAKGLLGAERGQGTRVTVSS

The values that follow come from article PMC8852740, “Neutralization of Typhoid Toxin by Alpaca-Derived, Single-Domain Antibodies Targeting the PltB and CdtB Subunits” (Infection and Immunity, 2021).

In the assay the target is PltB homopentamer, biotinylated (Salmonella enterica serovar Typhi; …, UniProt Q8Z6A3, biotinylated with EZ-link NHS-Biotin (sites not given)).
B1: the binding result is on record as “binds”. For the molecule B2, the binding result was “binds”. On to B3, for which the binding result was “binds”. Regarding B4, the binding result is given as “binds”. Next, B5: “binds”. In the case of B6, the binding result was “binds”.

In the case of B7, the binding result is given as “binds”.

On to B8, for which the binding result is reported as “binds”. Take B9: the binding result is “binds”. Next, B10: “binds”; B11: “binds”. For the molecule B12, the binding result is listed as “binds”. On to B13, for which the binding result was “binds”. Turning to B14, the binding result is given as “binds”. As to B15, the binding result was “binds”.

Turning to B16, the binding result is recorded as “binds”. In the case of B17, the binding result is listed as “binds”. Regarding B18, the binding result is on record as “binds”. As for B19, the entry is “binds”; as for B20, “binds”. With B21, the binding result is given as “binds”.

On to B22, for which the binding result is “binds”. In the case of B23, the binding result is on record as “binds”.
